Assay results published in US20260242478A1 (published 2026).
Where no end group is shown, it is not given here.

B1: Phage-2820 (Peptide-180 library clone) (peptide)
peptide: FEKWCTPLWMCADS
modifications: cysteine pairing not given here; also: fused to pIII, displayed on bacteriophage
B2: Phage-2790 (peptide)
peptide: VMKWCTPSWMCAEA
modifications: cysteine pairing not given here; also: fused to pIII, displayed on bacteriophage
B3: Phage-2787 (peptide)
peptide: LWKSCTPEWMCAEW
modifications: cysteine pairing not given here; also: fused to pIII, displayed on bacteriophage
B4: Phage-2799 (peptide)
peptide: ESKWCVPTWMCAEN
modifications: cysteine pairing not given here; also: fused to pIII, displayed on bacteriophage
B5: Phage-2819 (Peptide-180 library clone) (peptide)
peptide: IDKWCKPVWMCADN
modifications: cysteine pairing not given here; also: fused to pIII, displayed on bacteriophage
B6: Phage-2803 (peptide)
peptide: VKHVCMPEWMCYWS
modifications: cysteine pairing not given here; also: fused to pIII, displayed on bacteriophage

Assays:
PSMA Fab [1] = molecular target: T1, PSMA Fab (biotinylated (site not stated)); experiment: clonal phage ELISA on captured biotinylated PSMA Fab; competitor: PSMA antigen at saturating concentration
T1 construct: also called Anti-PSMA Fab; 006 PSMA Fab

PSMA Fab [2] = molecular target: T1, PSMA Fab; experiment: clonal phage ELISA on biotinylated PSMA Fab captured on neutravidin plates, anti-M13 HRP detection;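 also: crude clonal phage supernatants tested, before phage were added, wells were pretreated with PSMA antigen in blocking buffer or with blocking buffer only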
Method: (§1) Clonal phage were harvested as crude supernatants and screened via standard ELISAs. […] Prior to the addition of clonal phage. wells were incubated with blocking buffer and PSMA antigen or blocking buffer alone. Without washing or aspirating, clonal phage supernatants were then added to the wells and incubated for a short time. Wells were then washed followed by detection of bound phage using a horse radish conjugated anti-M13 antibody.

PSMA Fab (006 PSMA Fab) [3] = molecular target: T2, PSMA Fab (006 PSMA Fab) (biotinylated for capture on neutravidin plates (site not stated)); experiment: clonal phage ELISA on biotinylated PSMA Fab captured on neutravidin plates, anti-M13-HRP detection;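 also: crude clonal phage supernatants added to wells preincubated with PSMA antigen or with blocking buffer only (no wash between), briefly incubated, then washed before detecting bound phage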
T2 construct: also called Anti-PSMA Fab

PSMA Fab (006 PSMA Fab) [4] = molecular target: T2, PSMA Fab (006 PSMA Fab); experiment: clonal phage ELISA on captured PSMA Fab pre-incubated with PSMA antigen as competitor, anti-M13-HRP detection;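 also: wells blocked with buffer plus PSMA antigen before phage addition, with blocking buffer alone as the no-competitor control, bound phage detected after washing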
Method: as §1

PSMA Fab (006 PSMA Fab) [5] = molecular target: T3, PSMA Fab (006 PSMA Fab); experiment: phage ELISA; biotinylated PSMA Fab on neutravidin plate, clonal phage supernatant, anti-M13 HRP detection;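 also: wells preincubated with PSMA antigen in blocking buffer or with blocking buffer only before clonal phage were added for a short incubation, then bound phage detected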
T3 construct: In the phage ELISA the PSMA Fab was biotinylated and captured on neutravidin coated plates; also called Anti-PSMA Fab; anti-PSMA Fab
Method: as §1

PSMA Fab (006 PSMA Fab) [6] = molecular target: T3, PSMA Fab (006 PSMA Fab); experiment: phage ELISA; PSMA Fab on plate pre-incubated with PSMA antigen as competitor, anti-M13 HRP detection;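 also: crude clonal phage supernatants added to Fab-coated wells still holding PSMA antigen in blocking buffer, with bound phage as read-out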
Method: as §1

Row | Binder | phage binding ELISA signal (Anti-PSMA Fab, wells pre-incubated with PSMA antigen) (PSMA Fab [1]) | Phage binding ELISA signal, Anti-PSMA Fab (PSMA Fab [2]) | Phage binding ELISA signal, Anti-PSMA Fab (PSMA Fab (006 PSMA Fab) [3]) | Phage binding ELISA signal, Anti-PSMA Fab in presence of PSMA (PSMA Fab (006 PSMA Fab) [4]) | other results
1 | WEKWCTPSWMCSGI [Phage-2791] | 0.0859 | 0.598 | – | – | –
2 | FSKLCTPPWMCSVS [Phage-2813] | – | – | 0.543 | 0.276 | –
3 | MEKWCTPRWMCVGM [Phage-2808] | – | – | 0.565 | 0.0734 | –
4 | SVHMCKPPWMCQSM [Phage-2818] | – | – | 0.509 | 0.077 | –
5 | WENWCIPQWMCGTA [Phage-2807] | – | – | 0.565 | 0.141 | –
6 | SDNWCKPEWMCVGH [Phage-2801] | 0.0873 | 0.578 | – | – | –
7 | GDKWCKPSWMCDFF [Phage-2816] | – | – | 0.526 | 0.072 | –
8 | WDNWCTPSWMCSTA [Phage-2821 (Peptide-180 library clone)] | – | – | – | – | Phage binding ELISA signal, Anti-PSMA Fab (PSMA Fab (006 PSMA Fab) [5]): 0.488; phage binding ELISA signal (Anti-PSMA Fab, PSMA antigen present) (PSMA Fab (006 PSMA Fab) [6]): 0.0814
9 | DYKWCTPPWMCDSR [Phage-2800] | 0.0697 | 0.58 | – | – | –
10 | B1 | – | – | – | – | Phage binding ELISA signal, Anti-PSMA Fab (PSMA Fab (006 PSMA Fab) [5]): 0.5; phage binding ELISA signal (Anti-PSMA Fab, PSMA antigen present) (PSMA Fab (006 PSMA Fab) [6]): 0.0612
11 | LNNWCTPAWMCVGY [Phage-2796] | 0.084 | 0.589 | – | – | –
12 | ERIWCTPKWMCETF [Phage-2797] | 0.0657 | 0.589 | – | – | –
13 | FEKWCTPQWMCNSM [Phage-2795] | 0.0699 | 0.59 | – | – | –
14 | PMKWCTPPWMCSYS [Phage-2814] | – | – | 0.538 | 0.063 | –
15 | DIRWCTPPWMCMHL [Phage-2822 (Peptide-180 library clone)] | – | – | – | – | Phage binding ELISA signal, Anti-PSMA Fab (PSMA Fab (006 PSMA Fab) [5]): 0.486; phage binding ELISA signal (Anti-PSMA Fab, PSMA antigen present) (PSMA Fab (006 PSMA Fab) [6]): 0.258
16 | VGPWCIPDWMCDVV [Phage-2812] | – | – | 0.554 | 0.0755 | –
17 | TQHWCTPIWMCEGL [Phage-2792] | 0.0819 | 0.597 | – | – | –
18 | EAKWCTPPWMCSLV [Phage-2817] | – | – | 0.525 | 0.0546 | –
19 | HFKWCIPPWMCLEI [Phage-2798] | 0.298 | 0.588 | – | – | –

Row | Binder | phage binding ELISA signal (Anti-PSMA Fab, wells pre-incubated with PSMA antigen) (PSMA Fab [1]) | Phage binding ELISA signal, Anti-PSMA Fab (PSMA Fab [2]) | Phage binding ELISA signal, Anti-PSMA Fab (PSMA Fab (006 PSMA Fab) [3]) | Phage binding ELISA signal, Anti-PSMA Fab in presence of PSMA (PSMA Fab (006 PSMA Fab) [4]) | other results
20 | TEKWCIPQWMCVRT [Phage-2794] | 0.0656 | 0.592 | – | – | –
21 | VGKWCTPEWMCSGF [Phage-2789] | 0.0562 | 0.6 | – | – | –
22 | GVNWCVPPWMCLND [Phage-2823 (Peptide-180 library clone)] | – | – | – | – | Phage binding ELISA signal, Anti-PSMA Fab (PSMA Fab (006 PSMA Fab) [5]): 0.484; phage binding ELISA signal (Anti-PSMA Fab, PSMA antigen present) (PSMA Fab (006 PSMA Fab) [6]): 0.0879
23 | VTKLCIPEWMCVIQ [Phage-2809] | – | – | 0.562 | 0.0595 | –
24 | MMHWCTPPWMCEFS [Phage-2805] | – | – | 0.568 | 0.0626 | –
25 | TPKWCTPAWMCVVS [Phage-2802] | 0.077 | 0.575 | – | – | –
26 | B2 | 0.0742 | 0.599 | – | – | –
27 | SVKWCTPSWMCTEW [Phage-2788] | 0.104 | 0.601 | – | – | –
28 | VPKWCTPSWMCEFT [Phage-2811] | – | – | 0.56 | 0.0648 | –
29 | VTNWCTPPWMCEML [Phage-2793] | 0.213 | 0.596 | – | – | –
30 | EGKWCTPTWMCQGF [Phage-2804] | – | – | 0.57 | 0.0945 | –
31 | B3 | 0.0991 | 0.606 | – | – | –
32 | B4 | 0.0578 | 0.583 | – | – | –
33 | MDIWCKPRWMCEEY [Phage-2810] | – | – | 0.562 | 0.0676 | –
34 | B5 | – | – | – | – | Phage binding ELISA signal, Anti-PSMA Fab (PSMA Fab (006 PSMA Fab) [5]): 0.5; phage binding ELISA signal (Anti-PSMA Fab, PSMA antigen present) (PSMA Fab (006 PSMA Fab) [6]): 0.0659
35 | B6 | – | – | 0.57 | 0.0724 | –
36 | GATWCTPTWMCTGF [Phage-2806] | – | – | 0.566 | 0.117 | –
37 | IDKWCVPAWMCSPA [Phage-2815] | – | – | 0.538 | 0.06 | –
